Laboratory results reported in article PMC4552014, “High Affinity Binders to EphA2 Isolated from Abdurin Scaffold Libraries; Characterization, Binding and Tumor Targeting” (PLoS ONE, 2015).

B1: Abdurin B11, affinity matured EphA2 binder (designed binder)
chain: GPSVFLFPPKPKDTLMISRTPEVTCVVVDYRADYLEVKFNWYVDGVEVHNAKTKPRQYDPLYGYRVVSVLTVLHQDWLNGKEYKCKVSNKALPAPIEKTISKAK
notes: Abdurin scaffold (human IgG1 CH2 domain), stretch before loop BC; loop BC of matured clone B11, in place of Val266-Pro271 (VSHEDP) of the scaffold; Abdurin scaffold (human IgG1 CH2 domain), stretch between loops BC and DE; loop DE from the parental clone E10, in place of Glu293-Thr299 (EEQYNST); Abdurin scaffold (human IgG1 CH2 domain), stretch after loop DE; Not the phage loop DE clone of the …
B2: Abdurin D2, affinity matured EphA2 binder (designed binder)
chain: GPSVFLFPPKPKDTLMISRTPEVTCVVVDYEAAALEVKFNWYVDGVEVHNAKTKPRQYDPLYGYRVVSVLTVLHQDWLNGKEYKCKVSNKALPAPIEKTISKAK
notes: Abdurin scaffold (human IgG1 CH2 domain), stretch before loop BC; loop BC of matured clone D2, in place of Val266-Pro271 (VSHEDP) of the scaffold; Abdurin scaffold (human IgG1 CH2 domain), stretch between loops BC and DE; loop DE from the parental clone E10, in place of Glu293-Thr299 (EEQYNST); Abdurin scaffold (human IgG1 CH2 domain), stretch after loop DE; Not the phage loop DE clone of the …
B3: Abdurin G7, affinity matured EphA2 binder (designed binder)
chain: GPSVFLFPPKPKDTLMISRTPEVTCVVVDPHLGVDEVKFNWYVDGVEVHNAKTKPRQYDPLYGYRVVSVLTVLHQDWLNGKEYKCKVSNKALPAPIEKTISKAK
notes: Abdurin scaffold (human IgG1 CH2 domain), stretch before loop BC; loop BC of matured clone G7, in place of Val266-Pro271 (VSHEDP) of the scaffold; Abdurin scaffold (human IgG1 CH2 domain), stretch between loops BC and DE; loop DE from the parental clone E10, in place of Glu293-Thr299 (EEQYNST); Abdurin scaffold (human IgG1 CH2 domain), stretch after loop DE; source: E. coli Shuffle cells, …
B4: Abdurin B6, affinity matured EphA2 binder (designed binder)
chain: GPSVFLFPPKPKDTLMISRTPEVTCVVVDPYLHDDEVKFNWYVDGVEVHNAKTKPRQYDPLYGYRVVSVLTVLHQDWLNGKEYKCKVSNKALPAPIEKTISKAK
notes: Abdurin scaffold (human IgG1 CH2 domain), stretch before loop BC; loop BC of matured clone B6, in place of Val266-Pro271 (VSHEDP) of the scaffold; Abdurin scaffold (human IgG1 CH2 domain), stretch between loops BC and DE; loop DE from the parental clone E10, in place of Glu293-Thr299 (EEQYNST); Abdurin scaffold (human IgG1 CH2 domain), stretch after loop DE; source: E. coli Shuffle cells, …
B5: Abdurin H6, purified loop DE binder (designed binder)
chain: GPSVFLFPPKPKDTLMISRTPEVTCVVVDVSHEDPEVKFNWYVDGVEVHNAKTKPRRVDPLGGYRVVSVLTVLHQDWLNGKEYKCKVSNKALPAPIEKTISKAK
notes: Abdurin scaffold (human IgG1 CH2 domain), stretch before loop DE; loop DE of clone H6, in place of Glu293-Thr299 (EEQYNST) of the scaffold; Abdurin scaffold (human IgG1 CH2 domain), stretch after loop DE

Key:
human FcRn (human) = human FcRn (human) (UniProt P55899); test: SPR; Biacore 3000, on hFcRn; who was immobilised and the conditions not given
[1] = molecular target: human EphA2 recombinant protein (human, UniProt P29317 24-976, Construct limits are not given; the soluble recombinant receptor is taken as the mature extracellular domain from the UniProt features. The Fig 3 legend names an Fc fusion (hEphA2-Fc), and the Fc is); test: SPR; Biacore 3000; hEphA2 immobilised on CM5 chip by amine coupling (500 RU); Abdurins as analyte, multi-cycle kinetics in HBS-P (50 mM Hepes pH 7.4, 150 mM NaCl, 0.005% P-20), 40 μl/minute; 1:1 binding model; repeated three times; conditions: both partners purified
human EphA2 recombinant protein, sequence (P29317 24-976): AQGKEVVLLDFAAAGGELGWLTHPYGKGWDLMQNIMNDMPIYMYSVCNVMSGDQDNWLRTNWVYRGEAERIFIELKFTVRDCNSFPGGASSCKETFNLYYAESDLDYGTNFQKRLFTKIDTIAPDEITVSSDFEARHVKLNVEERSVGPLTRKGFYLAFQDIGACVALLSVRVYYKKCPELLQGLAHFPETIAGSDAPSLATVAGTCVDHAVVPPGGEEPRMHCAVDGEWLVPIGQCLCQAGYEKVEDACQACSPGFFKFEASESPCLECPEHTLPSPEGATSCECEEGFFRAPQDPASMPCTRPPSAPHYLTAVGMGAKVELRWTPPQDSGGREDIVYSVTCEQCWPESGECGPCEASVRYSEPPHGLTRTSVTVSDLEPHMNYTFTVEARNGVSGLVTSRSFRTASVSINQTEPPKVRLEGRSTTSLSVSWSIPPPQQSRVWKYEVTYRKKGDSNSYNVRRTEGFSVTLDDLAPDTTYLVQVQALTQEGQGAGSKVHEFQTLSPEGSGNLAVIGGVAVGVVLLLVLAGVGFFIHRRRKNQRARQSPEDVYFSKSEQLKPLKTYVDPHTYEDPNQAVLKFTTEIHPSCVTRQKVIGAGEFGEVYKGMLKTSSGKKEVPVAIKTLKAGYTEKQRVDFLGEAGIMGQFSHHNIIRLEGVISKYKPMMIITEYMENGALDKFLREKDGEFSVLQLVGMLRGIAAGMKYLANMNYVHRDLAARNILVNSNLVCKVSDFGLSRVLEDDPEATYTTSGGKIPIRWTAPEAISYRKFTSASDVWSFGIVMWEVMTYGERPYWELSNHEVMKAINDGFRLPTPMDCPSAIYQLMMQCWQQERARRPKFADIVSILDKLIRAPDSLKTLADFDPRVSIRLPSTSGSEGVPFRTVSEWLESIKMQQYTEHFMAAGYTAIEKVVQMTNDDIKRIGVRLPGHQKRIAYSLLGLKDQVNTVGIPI

[2] = molecular target: T1, hEphA2 on CHOK1-EphA2 cells (human, UniProt P29317 24-976); test: flow cytometry on cells; Abdurins at 1nM to 7μM incubated with CHOK1-EphA2 cells; detected with mouse anti-HisTag-FITC; the constant is printed as 'Affinity (M)'; conditions: one partner purified
T1 construct: EphA2, human, transfection-ready hEphA2 cDNA (OriGene Technologies); also called cell-surface expressed hEphA2; source: CHOK1 cells transfected with hEphA2 cDNA (OriGene Technologies), single cell clone, on cells
T1 sequence (P29317 24-976): as above

[3] = molecular target: T2, murine EphA2-Fc fusion protein (mouse, UniProt Q03145 26-538); test: ELISA; end-point titration ELISA in 96-well plates coated with hEphA2-Fc or mEphA2-Fc; purified Abdurins titrated; detected by anti-FLAG M2-HRP; the constant is printed as 'Affinity (M)'; conditions: both partners purified
T2 construct: ephrin receptor tyrosine kinase class A2 (EphA2), mouse, extracellular domain as Fc chimera; Biotinylated in-house (EZ-Link Sulfo-NHS-LC-Biotin) for the CIS display selections and the screening ELISA; also called mEphA2-Fc; mEphA2; source: bought: R&D Systems
T2 sequence (Q03145 26-538): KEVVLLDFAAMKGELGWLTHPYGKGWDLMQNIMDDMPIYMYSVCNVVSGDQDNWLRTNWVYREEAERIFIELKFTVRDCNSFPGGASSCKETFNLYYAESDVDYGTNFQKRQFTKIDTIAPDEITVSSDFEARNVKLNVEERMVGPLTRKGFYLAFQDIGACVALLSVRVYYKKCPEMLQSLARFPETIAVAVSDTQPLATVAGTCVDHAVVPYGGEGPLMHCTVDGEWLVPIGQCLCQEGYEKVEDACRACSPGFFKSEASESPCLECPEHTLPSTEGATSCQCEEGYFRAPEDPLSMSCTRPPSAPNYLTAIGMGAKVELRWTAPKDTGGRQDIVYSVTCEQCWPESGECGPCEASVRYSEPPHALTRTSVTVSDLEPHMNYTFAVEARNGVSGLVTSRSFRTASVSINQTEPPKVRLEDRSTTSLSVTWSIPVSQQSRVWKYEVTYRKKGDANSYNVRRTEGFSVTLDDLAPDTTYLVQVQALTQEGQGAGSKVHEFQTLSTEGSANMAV

hEphA2-Fc = molecular target: T3, hEphA2-Fc (human, UniProt P29317 24-537); test: as above; conditions: both partners purified
T3 construct: EphA2, human, as Fc fusion coated on 96-well plates; Probably the extracellular domain; also called huEphA2
T3 sequence (P29317 24-537): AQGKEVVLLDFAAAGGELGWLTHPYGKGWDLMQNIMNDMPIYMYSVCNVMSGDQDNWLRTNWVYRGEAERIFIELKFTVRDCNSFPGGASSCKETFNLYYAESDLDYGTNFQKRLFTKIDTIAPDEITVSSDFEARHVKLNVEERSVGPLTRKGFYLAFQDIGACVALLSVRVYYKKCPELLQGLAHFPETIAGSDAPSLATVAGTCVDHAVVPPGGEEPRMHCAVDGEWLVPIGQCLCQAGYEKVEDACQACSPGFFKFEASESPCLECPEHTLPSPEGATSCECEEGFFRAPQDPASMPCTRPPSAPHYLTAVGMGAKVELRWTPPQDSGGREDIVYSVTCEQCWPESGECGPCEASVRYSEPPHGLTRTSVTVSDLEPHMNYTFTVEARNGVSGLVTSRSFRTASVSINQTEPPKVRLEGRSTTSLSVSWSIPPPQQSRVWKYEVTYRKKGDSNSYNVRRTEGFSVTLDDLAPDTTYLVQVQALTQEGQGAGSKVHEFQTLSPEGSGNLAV

[4] = molecular target: T2, murine EphA2-Fc fusion protein; test: SPR; Biacore 3000, on mEphA2; purified Abdurins from E. coli; immobilisation for mEphA2 not described; conditions: both partners purified

| Molecule | Kd (human FcRn (human)) [nM] | koff (human FcRn (human)) [s⁻¹] | kon (human FcRn (human)) [M⁻¹ s⁻¹] | koff [1] [s⁻¹] | kon [1] [M⁻¹ s⁻¹] | Kd [2] [nM] | Kd [3] [nM] | Kd (hEphA2-Fc) [nM] | Kd [4] [nM] | koff [4] [s⁻¹] | kon [4] [M⁻¹ s⁻¹] |
| --- | --- | --- | --- | --- | --- | --- | --- | --- | --- | --- | --- |
| shWTCH2 (version of the wild-type CH2 domain that has the N-terminal seven amino acids truncated) (domain or fragment) | 25 | 0.017 | 1.5e+06 | – | – | – | – | – | – | – | – |
| B1 | 26 | 0.013 | 1.1e+06 | 0.0158 | 1.21e+06 | 403 | 9.89 | 4.43 | – | – | – |
| B2 | – | – | – | – | – | 1310 | 1.97 | 2.55 | – | – | – |
| B3 | – | – | – | 0.0375 | 1.8e+06 | 333 | 3.18 | 8.06 | – | – | – |
| B4 | 38 | 0.011 | 1.1e+06 | 0.0496 | 716000 | 151 | 3.5 | 6.54 | – | – | – |
| B5 | – | – | – | – | – | – | – | – | 873 | 0.008 | 9610 |
